Experimental data from patent publication CN116173202A (BEIJING DONGFANG BIOTECH CO LTD, dated 2023).
Where two headings read alike, the source gives them in different places.

How the values were obtained:
Test in all cases: cell-based or functional assay
[1] = biological target: T1, 人单核细胞白血病细胞(THP-1)表面LILRB4 (human, UniProt Q8NHJ6 22-448)
[2] = biological target: T1, 人单核细胞白血病细胞(THP-1)表面LILRB4; remark: listed apart in the source
[3] = biological target: T1, 人单核细胞白血病细胞(THP-1)表面LILRB4; remark: listed apart in the source

IC50, 抑制THP-1分泌ARG1 (arginase activity in supernatant, ApoE 0.5μg/mL) [1] [µg/mL]	IC50, 抑制THP-1分泌ARG1 (arginase activity in supernatant, ApoE 0.5μg/mL) [2] [µg/mL]	IC50, 生物学活性检测(报告基因), THP-1-NF-κB-Luc cells with ApoE [3] [µg/mL]	Binder
23.9			MA-Ⅰ 鼠源抗LILRB4单克隆抗体 (mouse IgG1 / mouse Ck) (antibody) heavy: not shown light: DIVMTQTTLSLPVSPGDQASISCRSSQSLAHSNGNTYLHWYLQKPGQSPKLLIYKVSNRFSGVPDRFSGSGSGTDFTLKISRVEAEDLGVYFCSQSTLVPTFGGGTKLEIKADAAPTVSIFPPSSEQLTSGGASVVCFLNNFYPKDINVKWKIDGSERQNGVLNSWTDQDSKDSTYSMSSTLTLTKDEYERHNSYTCEATHKTSTSPIVKSFNRNEC
46			MB-Ⅰ 鼠源抗LILRB4单克隆抗体 (mouse IgG1 / mouse Ck) (antibody) heavy: QVQLQESGAELVKPGASVKLSCKASGYTFTNYWMHWVKQRPGQGLEWIGEINPSNGRTNYNEKFKTKATLTVDKSSSTAYMQLSSLTSEDSAVYYCARWGQLGLREGYYAVDYWGQGTSVTVSSAKTTPPSVYPLAPGSAAQTNSMVTLGCLVKGYFPEPVTVTWNSGSLSSGVHTFPAVLQSDLYTLSSSVTVPSSTWPSETVTCNVAHPASSTKVDKKIVPRDCGCKPCICTVPEVSSVFIFPPKPKDVLTITLTPKVTCVVVDISKDDPEVQFSWFVDDVEVHTAQTQPREEQFNSTFRSVSELPIMHQDWLNGKEFKCRVNSAAFPAPIEKTISKTKGRPKAPQVYTIPPPKEQMAKDKVSLTCMITDFFPEDITVEWQWNGQPAENYKNTQPIMDTDGSYFVYSKLNVQKSNWEAGNTFTCSVLHEGLHNHHTEKSLSHSPG light: DIVMTQSPSSLSASLGDRVTISCRASQDISNYLNWYQQKPDGTVKLLIYYTSRLHSGVPSRFSGSGSGTDYSLTISNLEQEDIATYFCQQGNTLPPTFGGGTKLEIKADAAPTVSIFPPSSEQLTSGGASVVCFLNNFYPKDINVKWKIDGSERQNGVLNSWTDQDSKDSTYSMSSTLTLTKDEYERHNSYTCEATHKTSTSPIVKSFNRNEC
	250	2.68	人源化抗体HA-Ⅱ (human IgG1 / human Ck) (antibody, V domains shown) VH: EVQLVESGGGLVKPGGSLRLSCAASGFTFSSYTMSWVRQAPGKGLEWVATISSGGTYTYYPDSVKGRFTISRDNAKNSLYLQMNSLRAEDTAVYYCARDGYDGFDYWGQGTTVTVSS VL: DIVMTQTPLSLSVTPGQPASISCRSSQSLAHSNGNTYLHWYLQKPGQSPQLLIYKVSNRFSGVPDRFSGSGSGTDFTLKISRVEAEDVGVYFCSQSTHVPTFGGGTKVEIKR
	98.5	3.44	人源化抗体HA-Ⅲ (human IgG1 / human Ck) (antibody, V domains shown) VH: EVQLVESGGGLVKPGGSLRLSCAASGFTFSSYTMSWVRQAPGKGLEWVATISSGGTYTYYPDSVKGRFTISRDNAKNSLYLQMNSLRAEDTAVYYCTRDGYDGFDYWGQGTTVTVSS VL: DIVMTQTPLSLSVTPGQPASISCRSSQSLAHSNGNTYLHWYLQKPGQSPKLLIYKVSNRFSGVPDRFSGSGSGTDFTLKISRVEAEDVGVYFCSQSTHVPTFGGGTKVEIKR
	31.2	0.756	人源化抗体HA-Ⅰ (human IgG1 / human Ck) (antibody, V domains shown) VH: EVQLVESGGGLVKPGGSLRLSCAASGFTFSSYTMSWVRQAPGKGLEWVSTISSGGTYTYYPDSVKGRFTISRDNAKNSLYLQMNSLRAEDTAVYYCARDGYDGFDYWGQGTTVTVSS VL: DIVMTQTPLSLSVTPGQPASISCRSSQSLAHSNGNTYLHWYLQKPGQSPQLLIYKVSNRFSGVPDRFSGSGSGTDFTLKISRVEAEDVGVYYCSQSTHVPTFGGGTKVEIKR
